# In publication PMC7896290:
# Assays:
# [1] = molecular target: anti-DNP IgG1-RGY (human IgG1 with E345R, E430G, S440Y) (human); assay: high-speed atomic force microscopy
# [2] = molecular target: anti-DNP wild-type human monoclonal IgG1 (human); assay: native MS
# [3] = molecular target: human monoclonal IgG2 (human); assay: native MS
# [4] = molecular target: human monoclonal IgG4 (human); assay: native MS
stoichiometry N [3] [SpA per IgG],stoichiometry N [4] [SpA per IgG],stoichiometry N [2] [SpA per IgG],Substance,reduction of IgG1-RGY hexamers [1] [%],stoichiometry N (SpA-B per IgG) [2]
,,,SpA-B domain wild type (single B-domain of staphylococcal protein A) (domain or fragment),50,2
1,1,1,"staphylococcal protein A, soluble construct containing all five Ig-binding domains (domain or fragment)",,
